The results in this text go back to US20250352667A1.

Numbering of substitutions follows the chain as printed. In names and notes the source's numbering stands.

Experiment [1] concerns the target KEAP1 (wild-type full-length), His-tagged (human) (UniProt Q14145). The experiment is described as follows: AlphaScreen; FLAG-NRF2 wt isoform 1 38.4 nM, His-KEAP1 150 nM; Rep 2; positive control for I86V. Background: Alpha assays give light when donor and acceptor beads are brought close together.
Experiment [2] has the same target. The experiment is described as follows: AlphaScreen; 38.4 nM FLAG-NRF2, 150 nM His-KEAP1; Rep 2; control for I28V.
Experiment [3] has the same target. Description: AlphaScreen; 19.2 nM FLAG-NRF2, 150 nM His-KEAP1; signal against NRF2 only; control for I28V.
Experiment [4] has the same target. The experiment is described as follows: AlphaScreen, all variants on one plate; average of three conditions, KEAP1 150 nM; the reference itself.
The target is the same in experiment [5]. The experiment is described as follows: AlphaScreen; NRF2 wt isoform 1 2.4 nM, KEAP1 150 nM; signal against NRF2-only control; control for Q75R.
For experiment [6] the target is unchanged. Description: AlphaScreen; 9.6 nM FLAG-NRF2, 150 nM His-KEAP1; Repeat 1 (same value as in Table 26).
Experiment [7] shares this target. The experiment is described as follows: AlphaScreen; 614.4 nM FLAG-NRF2, 150 nM His-KEAP1; Rep 3; control for I86V.
Experiment [8] shares this target. Description: AlphaScreen; 2.4 nM FLAG-NRF2, 150 nM His-KEAP1; Rep 3; control for I86V.
Experiment [9] shares this target. Description: AlphaScreen; 153.6 nM FLAG-NRF2, 150 nM His-KEAP1; signal against NRF2 only; control for I28V.
Experiment [10] shares this target. The experiment is described as follows: AlphaScreen; 4.8 nM FLAG-NRF2, 150 nM His-KEAP1; Rep 2; control for I28V.
Experiment [11] has the same target. Description: AlphaScreen; FLAG-NRF2 I86V 2.4 nM, His-KEAP1 150 nM; Rep 2.
For experiment [12] the target is unchanged. Description: AlphaScreen; FLAG-NRF2 I86V 4.8 nM, His-KEAP1 150 nM; Rep 1.
Experiment [13] shares this target. The experiment is described as follows: AlphaScreen; NRF2 I86V 307.2 nM, KEAP1 150 nM; signal against NRF2-only control.
The target is the same in experiment [14]. The experiment is described as follows: AlphaScreen; 38.4 nM FLAG-NRF2, 150 nM His-KEAP1; Repeat 1 (same value as in Table 27).
The target is the same in experiment [15]. The experiment is described as follows: AlphaScreen; standard deviation of three conditions; against wild-type NRF2 isoform 1.
The target is the same in experiment [16]. Description: AlphaScreen; 9.6 nM FLAG-NRF2, 150 nM His-KEAP1; Rep 2.
Experiment [17] shares this target. Description: AlphaScreen; 38.4 nM FLAG-NRF2, 150 nM His-KEAP1; against wild-type NRF2 isoform 1 = 100%.
For experiment [18] the target is unchanged. Description: AlphaScreen; 4.8 nM FLAG-NRF2, 150 nM His-KEAP1; Rep 2.
The target is the same in experiment [19]. The experiment is described as follows: AlphaScreen; 2.4 nM FLAG-NRF2, 150 nM His-KEAP1; Rep 1.
Experiment [20] shares this target. Description: AlphaScreen; 307.2 nM FLAG-NRF2, 150 nM His-KEAP1; signal against NRF2 only.
For experiment [21] the target is unchanged. The experiment is described as follows: AlphaScreen; 4.8 nM FLAG-NRF2, 150 nM His-KEAP1; Rep 1.
The target is the same in experiment [22]. The experiment is described as follows: AlphaScreen; NRF2 Q75R 38.4 nM, KEAP1 150 nM; signal against NRF2-only control.
Experiment [23] shares this target. Description: AlphaScreen; FLAG-NRF2 Q75R 153.6 nM, His-KEAP1 150 nM; Rep 2.
Experiment [24] has the same target. Description: AlphaScreen; FLAG-NRF2 Q75R 76.8 nM, His-KEAP1 150 nM; Rep 1.
Experiment [25] has the same target. Description: AlphaScreen; FLAG-NRF2 Q75R 614.4 nM, His-KEAP1 150 nM; Rep 2.
For experiment [26] the target is unchanged. The experiment is described as follows: AlphaScreen; FLAG-NRF2 Q75R 1228.8 nM, His-KEAP1 150 nM; Rep 2.
Experiment [27] has the same target. The experiment is described as follows: AlphaScreen; NRF2 Q75R 19.2 nM, KEAP1 150 nM; relative to wild-type NRF2 isoform 1 (100 %).
Experiment [28] shares this target. The experiment is described as follows: AlphaScreen; FLAG-NRF2 Q75R 19.2 nM, His-KEAP1 150 nM; Rep 2.

KEAP1 (wild-type full-length), His-tagged (human), sequence (Q14145 2-624 limits assumed): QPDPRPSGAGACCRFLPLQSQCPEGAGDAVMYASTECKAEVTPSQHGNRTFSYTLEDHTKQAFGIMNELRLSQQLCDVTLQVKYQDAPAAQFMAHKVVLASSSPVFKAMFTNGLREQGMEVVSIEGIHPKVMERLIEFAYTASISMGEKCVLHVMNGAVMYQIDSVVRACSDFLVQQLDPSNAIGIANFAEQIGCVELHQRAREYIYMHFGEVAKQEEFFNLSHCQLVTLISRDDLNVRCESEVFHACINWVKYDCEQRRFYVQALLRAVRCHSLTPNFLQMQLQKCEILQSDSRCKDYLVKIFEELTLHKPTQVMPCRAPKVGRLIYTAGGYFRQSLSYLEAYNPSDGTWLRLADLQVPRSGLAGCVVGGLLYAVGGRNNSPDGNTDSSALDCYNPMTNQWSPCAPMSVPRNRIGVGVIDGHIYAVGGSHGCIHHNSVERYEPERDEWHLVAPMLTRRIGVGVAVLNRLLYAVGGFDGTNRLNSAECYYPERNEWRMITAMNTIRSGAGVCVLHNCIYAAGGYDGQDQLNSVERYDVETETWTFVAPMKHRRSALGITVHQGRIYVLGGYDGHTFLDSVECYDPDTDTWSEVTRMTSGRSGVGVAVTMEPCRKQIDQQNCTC

B1: NRF2 isoform 1 (wild-type full-length), FLAG-tagged (protein)
chain: MMDLELPPPGLPSQQDMDLIDILWRQDIDLGVSREVFDFSQRRKEYELEKQKKLEKERQEQLQKEQEKAFFAQLQLDEETGEFLPIQPAQHIQSETSGSANYSQVAHIPKSDALYFDDCMQLLAQTFPFVDDNEVSSATFQSLVPDIPGHIESPVFIATNQAQSPETSVAQVAPVDLDGMQQDIEQVWEELLSIPELQCLNIENDKLVETTMVPSPEAKLTEVDNYHFYSSIPSMEKEVGNCSPHFLNAFEDSFSSILSTEDPNQLTVNSLNSDATVNTDFGDEFYSAFIAEPSISNSMPSPATLSHSLSELLNGPIDVSDLSLCKAFNQNHPESTAEFNDSDSGISLNTSPSVASPEHSVESSSYGDTLLGLSDSEVEELDSAPGSVKQNGPKTPVHSSGDMVQPLSPSQGQSTHVHDAQCENTPEKELPVSPGHRKTPFTKDKHSSRLEAHLTRDELRAKALHIPFPVEKIINLPVVDFNEMMSKEQFNEAQLALIRDIRRRGKNKVAAQNCRKRKLENIVELEQDLDHLKDEKEKLLKEKGENDKSLHLLKKQLSTLYLEVFSMLRDEDGKPYSPSEYSLQQTRDGNVFLVPKSKKPDVKKN
Take B1: in experiment [1], the A-counts (NRF2 plus KEAP1) was 2850 A-counts. Further, the A-counts in experiment [2] came out at 1900 A-counts; in experiment [6] it was 1590 A-counts; in [7] it was 2720 A-counts; in experiment [8] it was 1100 A-counts; in [10], 1160 A-counts. The S/N in [3] came out at 4.2; in experiment [5], 1.4; in experiment [9], 1.9. The molecule further came in with a % Disruption in Binding (Reported Values) in experiment [4] of 0%.

B2: NRF2 isoform 1 (I86V full-length), FLAG-tagged (protein)
chain: B1 chain with I86V
Regarding B2, the A-counts (NRF2 plus KEAP1) in experiment [11] amounted to 1610 A-counts; in experiment [12] it was 2170 A-counts. The same molecule showed a S/N in experiment [13] of 1.3.

B3: NRF2 isoform 1 (I28V full-length), FLAG-tagged (protein)
chain: B1 chain with I28V
Turning to B3, the A-counts in experiment [14] came out at 1690 A-counts; in experiment [16], 1560 A-counts; in experiment [18], 1050 A-counts; in experiment [19] it was 697 A-counts; in experiment [21] it was 1120 A-counts. This molecule showed a Reported Value (standard deviation of reduction in binding) in [15] of 7.2%. This molecule also displayed a Binding Percentage (%) in experiment [17] of 63.5%. The molecule further displayed a S/N in experiment [20] of 1.2.

B4: NRF2 isoform 1 (Q75R full-length), FLAG-tagged (protein)
chain: B1 chain with Q75R
The molecule B4 yielded a S/N in [22] of 2.4. Besides, the A-counts (NRF2 plus KEAP1) in experiment [23] came to 991 A-counts; in experiment [24], 1110 A-counts; in experiment [25] it was 855 A-counts; in experiment [26], 653 A-counts; in [28], 1280 A-counts. In experiment [27], this molecule showed a Binding Percentage of 63.7%.
